Patent publication US20210388087A1
Positions count from the first letter of the chain named. Names may count otherwise.

B1: dBBDu183H S99F / dBBDu072L (antibody, name in Kabat numbering, V domains shown)
VH: QVQLVESGGGLVQPGRSLRLSCAASGFTFSNAWMHWVRQAPGKGLEWVAQIKDKGNAYAAYYAPSVKGRFTISRDDSKNSIYLQMNSLKTEDTAVYYCHYVHYAFASTVLPAFGVDAWGQGTTVTVSS
VL: DIVMTQSPLSLPVTPGEPASISCQASQELVHMNRNTYLHWYQQKPGQAPRLLIYKVSNRFPGVPDRFSGSGSGTDFTLKISRVEAEDVGVYYCAQGTSVPFTFGQGTKLEIK
B2: dBBDu183H A100F / dBBDu072L (antibody, name in Kabat numbering, V domains shown)
VH: B1 VH with F105S, A106F
VL: B1 VL
B3: dBBDu183H S100aF / dBBDu072L (antibody, name in Kabat numbering, V domains shown)
VH: B1 VH with F105S, S107F
VL: B1 VL
B4: dBBDu183H T100bF / dBBDu072L (antibody, name in Kabat numbering, V domains shown)
VH: B1 VH with F105S, T108F
VL: B1 VL
B5: dBBDu183H V100cF / dBBDu072L (antibody, name in Kabat numbering, V domains shown)
VH: B1 VH with F105S, V109F
VL: B1 VL
B6: dBBDu183H L100dF / dBBDu072L (antibody, name in Kabat numbering, V domains shown)
VH: B1 VH with F105S, L110F
VL: B1 VL
B7: dBBDu183H P100eF / dBBDu072L (antibody, name in Kabat numbering, V domains shown)
VH: B1 VH with F105S, P111F
VL: B1 VL
B8: dBBDu183H A100fF / dBBDu072L (antibody, name in Kabat numbering, V domains shown)
VH: B1 VH with F105S, A112F
VL: B1 VL
B9: dBBDu183H G100hF / dBBDu072L (antibody, name in Kabat numbering, V domains shown)
VH: B1 VH with F105S, G114F
VL: B1 VL
B10: dBBDu183H V100iF / dBBDu072L (antibody, name in Kabat numbering, V domains shown)
VH: B1 VH with F105S, V115F
VL: B1 VL
B11: dBBDu183H D101F / dBBDu072L (antibody, name in Kabat numbering, V domains shown)
VH: B1 VH with F105S, D116F
VL: B1 VL
B12: dBBDu183H A102F / dBBDu072L (antibody, name in Kabat numbering, V domains shown)
VH: B1 VH with F105S, A117F
VL: B1 VL
B13: dBBDu183H H93W / dBBDu072L (antibody, name in Kabat numbering, V domains shown)
VH: B1 VH with H99W, F105S
VL: B1 VL
B14: dBBDu183H Y94W / dBBDu072L (antibody, name in Kabat numbering, V domains shown)
VH: B1 VH with Y100W, F105S
VL: B1 VL
B15: dBBDu183H V95W / dBBDu072L (antibody, name in Kabat numbering, V domains shown)
VH: B1 VH with V101W, F105S
VL: B1 VL
B16: dBBDu183H A98W / dBBDu072L (antibody, name in Kabat numbering, V domains shown)
VH: B1 VH with A104W, F105S
VL: B1 VL
B17: dBBDu183H S99W / dBBDu072L (antibody, name in Kabat numbering, V domains shown)
VH: B1 VH with F105W
VL: B1 VL
B18: dBBDu183H A100W / dBBDu072L (antibody, name in Kabat numbering, V domains shown)
VH: B1 VH with F105S, A106W
VL: B1 VL
B19: dBBDu183H S100aW / dBBDu072L (antibody, name in Kabat numbering, V domains shown)
VH: B1 VH with F105S, S107W
VL: B1 VL
B20: dBBDu183H T100bW / dBBDu072L (antibody, name in Kabat numbering, V domains shown)
VH: B1 VH with F105S, T108W
VL: B1 VL
B21: dBBDu183H P100eW / dBBDu072L (antibody, name in Kabat numbering, V domains shown)
VH: B1 VH with F105S, P111W
VL: B1 VL
B22: dBBDu183H A100fW / dBBDu072L (antibody, name in Kabat numbering, V domains shown)
VH: B1 VH with F105S, A112W
VL: B1 VL
B23: dBBDu183H G100hW / dBBDu072L (antibody, name in Kabat numbering, V domains shown)
VH: B1 VH with F105S, G114W
VL: B1 VL
B24: dBBDu183H V100iW / dBBDu072L (antibody, name in Kabat numbering, V domains shown)
VH: B1 VH with F105S, V115W
VL: B1 VL
B25: dBBDu183H D101W / dBBDu072L (antibody, name in Kabat numbering, V domains shown)
VH: B1 VH with F105S, D116W
VL: B1 VL
B26: dBBDu183H A102W / dBBDu072L (antibody, name in Kabat numbering, V domains shown)
VH: B1 VH with F105S, A117W
VL: B1 VL
B27: dBBDu183H V63Y / dBBDu072L (antibody, name in Kabat numbering, V domains shown)
VH: B1 VH with V66Y, F105S
VL: B1 VL
B28: dBBDu183H H93Y / dBBDu072L (antibody, name in Kabat numbering, V domains shown)
VH: B1 VH with H99Y, F105S
VL: B1 VL
B29: dBBDu183H V95Y / dBBDu072L (antibody, name in Kabat numbering, V domains shown)
VH: B1 VH with V101Y, F105S
VL: B1 VL
B30: dBBDu183H A98Y / dBBDu072L (antibody, name in Kabat numbering, V domains shown)
VH: B1 VH with A104Y, F105S
VL: B1 VL
B31: dBBDu183H A100Y / dBBDu072L (antibody, name in Kabat numbering, V domains shown)
VH: B1 VH with F105S, A106Y
VL: B1 VL
B32: dBBDu183H S100aY / dBBDu072L (antibody, name in Kabat numbering, V domains shown)
VH: B1 VH with F105S, S107Y
VL: B1 VL
B33: dBBDu183H T100bY / dBBDu072L (antibody, name in Kabat numbering, V domains shown)
VH: B1 VH with F105S, T108Y
VL: B1 VL
B34: dBBDu183H L100dY / dBBDu072L (antibody, name in Kabat numbering, V domains shown)
VH: B1 VH with F105S, L110Y
VL: B1 VL
B35: dBBDu183H P100eY / dBBDu072L (antibody, name in Kabat numbering, V domains shown)
VH: B1 VH with F105S, P111Y
VL: B1 VL
B36: dBBDu183H A100fY / dBBDu072L (antibody, name in Kabat numbering, V domains shown)
VH: B1 VH with F105S, A112Y
VL: B1 VL
B37: dBBDu183H G100hY / dBBDu072L (antibody, name in Kabat numbering, V domains shown)
VH: B1 VH with F105S, G114Y
VL: B1 VL
B38: dBBDu183H V100iY / dBBDu072L (antibody, name in Kabat numbering, V domains shown)
VH: B1 VH with F105S, V115Y
VL: B1 VL
B39: dBBDu183H D101Y / dBBDu072L (antibody, name in Kabat numbering, V domains shown)
VH: B1 VH with F105S, D116Y
VL: B1 VL
B40: dBBDu183H A102Y / dBBDu072L (antibody, name in Kabat numbering, V domains shown)
VH: B1 VH with F105S, A117Y
VL: B1 VL
B41: H183/L072 VH F29A (antibody, name in Kabat numbering, V domains shown)
VH: B1 VH with F29A, F105S
VL: B1 VL
B42: H183/L072 VH W33A (antibody, name in Kabat numbering, V domains shown)
VH: B1 VH with W33A, F105S
VL: B1 VL
B43: H183/L072 VH M34A (antibody, name in Kabat numbering, V domains shown)
VH: B1 VH with M34A, F105S
VL: B1 VL
B44: H183/L072 VH H35A (antibody, name in Kabat numbering, V domains shown)
VH: B1 VH with H35A, F105S
VL: B1 VL
B45: H183/L072 VH Q50A (antibody, name in Kabat numbering, V domains shown)
VH: B1 VH with Q50A, F105S
VL: B1 VL
B46: H183/L072 VH K52A (antibody, name in Kabat numbering, V domains shown)
VH: B1 VH with K52A, F105S
VL: B1 VL
B47: H183/L072 VH D52aA (antibody, name in Kabat numbering, V domains shown)
VH: B1 VH with D53A, F105S
VL: B1 VL

Molecular target: Human CD137 ECD (human)
Sequence (chain, as listed by the source limits assumed): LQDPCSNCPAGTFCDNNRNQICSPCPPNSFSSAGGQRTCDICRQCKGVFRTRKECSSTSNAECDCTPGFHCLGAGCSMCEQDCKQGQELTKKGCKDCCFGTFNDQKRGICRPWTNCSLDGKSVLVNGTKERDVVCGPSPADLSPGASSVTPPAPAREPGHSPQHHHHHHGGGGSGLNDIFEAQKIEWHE
Test: SPR, vs parent H183/L072

Fold change of affinity, 0 fold:
B1, B2, B3, B4, B5, B6, B7, B8, B9, B10, B11, B12, B13, B14, B15, B16, B17, B18, B19, B20, B21, B22, B23, B24, B25, B26, B27, B28, B29, B30, B31, B32, B33, B34, B35, B36, B37, B38, B39, B40

Molecular target: Human CD137 ECD (human)
Test: single mutant vs template dBBDu183H

Fold change of affinity, 0 fold:
B41, B42, B43, B44, B45, B46, B47
